Assay results published in US12534531 (MacroGenics, dated 2026).

How the values were obtained:
[1] = biological target: T1, human PD-1 expressed on the surface of cells (NSO cells expressing human PD-1; MNFAT-luc2/PD-1 Jurkat cells) (human, UniProt Q15116 21-288); assay: FACS: inhibition of sPD-L1 binding to PD-1 on NSO cells; SM; SD 0.1018
T1 construct: also called cell surface PD-1; PDCD1 transfected NSO cells expressing PD-1

[2] = biological target: T1, human PD-1 expressed on the surface of …; assay: FACS: inhibition of sPD-L2 binding to PD-1 on NSO cells; SM; SD 3.6847
[3] = biological target: T1, human PD-1 expressed on the surface of …; assay: FACS saturation binding to NSO cells expressing PD-1; single experiment
[4] = biological target: T2, human LAG-3 expressed on NSO cells (human, UniProt P18627 29-525); assay: FACS saturation binding to NSO cells expressing LAG-3; single experiment
T2 sequence: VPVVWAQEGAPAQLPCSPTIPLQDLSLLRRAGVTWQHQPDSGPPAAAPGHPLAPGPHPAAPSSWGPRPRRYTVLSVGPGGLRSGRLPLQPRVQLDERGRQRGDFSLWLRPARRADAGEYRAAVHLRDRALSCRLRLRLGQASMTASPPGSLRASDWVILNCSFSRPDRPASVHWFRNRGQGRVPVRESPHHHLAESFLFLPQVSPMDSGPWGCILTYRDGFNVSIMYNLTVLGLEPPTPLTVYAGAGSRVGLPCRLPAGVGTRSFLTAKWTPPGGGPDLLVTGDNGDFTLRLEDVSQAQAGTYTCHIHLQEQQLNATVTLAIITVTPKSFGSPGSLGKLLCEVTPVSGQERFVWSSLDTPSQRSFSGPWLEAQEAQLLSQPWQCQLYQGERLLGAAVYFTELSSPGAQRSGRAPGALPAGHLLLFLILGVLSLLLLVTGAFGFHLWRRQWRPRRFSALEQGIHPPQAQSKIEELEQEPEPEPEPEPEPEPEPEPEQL

[5] = biological target: T3, biotinylated-soluble human LAG-3-Fc fusion protein (human, UniProt P18627 23-450, biotinylated (site not stated)); assay: FACS: inhibition of shLAG-3-Fc binding to MHC II on Daudi cells (column head prints EC50); SM; SD 4.9817
T3 construct: whole entry named; also called shLAG-3; shLAG-3-Fc; not shown: Fc
T3 sequence: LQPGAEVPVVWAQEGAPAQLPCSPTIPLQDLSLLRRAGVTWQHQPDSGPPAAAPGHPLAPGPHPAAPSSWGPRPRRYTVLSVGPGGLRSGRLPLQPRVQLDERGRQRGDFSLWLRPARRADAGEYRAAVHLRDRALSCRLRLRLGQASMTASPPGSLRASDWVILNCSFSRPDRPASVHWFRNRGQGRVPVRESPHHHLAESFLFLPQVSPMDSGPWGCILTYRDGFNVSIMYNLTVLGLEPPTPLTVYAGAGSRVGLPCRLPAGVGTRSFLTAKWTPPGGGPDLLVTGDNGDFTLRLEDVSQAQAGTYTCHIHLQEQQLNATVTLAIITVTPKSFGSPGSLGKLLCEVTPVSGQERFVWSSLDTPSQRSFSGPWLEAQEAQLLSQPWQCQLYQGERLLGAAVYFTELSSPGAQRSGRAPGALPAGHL

[6] = biological target: T1, human PD-1 expressed on the surface of …; assay: FACS saturation binding to NSO cells expressing PD-1; SM; SD 0.6227
[7] = biological target: T2, human LAG-3 expressed on NSO cells; assay: FACS saturation binding to NSO cells expressing LAG-3; SM; SD 0.3045
[8] = biological target: T1, human PD-1 expressed on the surface of …; assay: FACS: inhibition of sPD-L1 binding to PD-1 on NSO cells; SM; SD 0.3581
[9] = biological target: T1, human PD-1 expressed on the surface of …; assay: FACS: inhibition of sPD-L2 binding to PD-1 on NSO cells; SM; SD 0.7891
[10] = biological target: T3, biotinylated-soluble human LAG-3-Fc …; assay: FACS: inhibition of shLAG-3-Fc binding to MHC II on Daudi cells (column head prints EC50); SM; SD 3.3552
[11] = biological target: T1, human PD-1 expressed on the surface of …; assay: FACS saturation binding to NSO cells expressing PD-1; SM; SD 0.4890
[12] = biological target: T2, human LAG-3 expressed on NSO cells; assay: FACS saturation binding to NSO cells expressing LAG-3; SM; SD 0.0547
[13] = biological target: T1, human PD-1 expressed on the surface of …; assay: FACS: inhibition of sPD-L1 binding to PD-1 on NSO cells; SM; SD 0.1302
[14] = biological target: T1, human PD-1 expressed on the surface of …; assay: FACS: inhibition of sPD-L2 binding to PD-1 on NSO cells; SM; SD 0.3125
[15] = biological target: T3, biotinylated-soluble human LAG-3-Fc …; assay: FACS: inhibition of shLAG-3-Fc binding to MHC II on Daudi cells (column head prints EC50); SM; SD 0.1549

T1 sequence (Q15116 21-288): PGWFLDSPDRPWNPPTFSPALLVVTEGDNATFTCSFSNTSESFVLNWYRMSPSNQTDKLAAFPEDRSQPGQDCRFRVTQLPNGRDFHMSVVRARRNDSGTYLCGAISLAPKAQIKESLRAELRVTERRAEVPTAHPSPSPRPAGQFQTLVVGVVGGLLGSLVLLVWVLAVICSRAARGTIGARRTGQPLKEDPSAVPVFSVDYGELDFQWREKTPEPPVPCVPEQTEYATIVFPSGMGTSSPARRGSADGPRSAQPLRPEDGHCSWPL

B1: DART H (bispecific antibody)
chain 1: EIVLTQSPATLSLSPGERATLSCRASESVDNYGMSFMNWFQQKPGQPPKLLIHAASNQGSGVPSRFSGSGSGTDFTLTISSLEPEDFAVYFCQQSKEVPYTFGGGTKVEIKGGGSGGGGQVQLVQSGAEVKKPGASVKVSCKASGYTFTNYGMNWVRQAPGQGLEWMGWINTYTGESTYADDFEGRFVFSMDTSASTAYLQISSLKAEDTAVYYCARESLYDYYSMDYWGQGTTVTVSSGGCGGGEVAALEKEVAALEKEVAALEKEVAALEKGGGDKTHTCPPCPAPEAAGGPSVFLFPPKPKDTLMISRTPEVTCVVVDVSHEDPEVKFNWYVDGVEVHNAKTKPREEQYNSTYRVVSVLTVLHQDWLNGKEYKCKVSNKALPAPIEKTISKAKGQPREPQVYTLPPSREEMTKNQVSLWCLVKGFYPSDIAVEWESNGQPENNYKTTPPVLDSDGSFFLYSKLTVDKSRWQQGNVFSCSVMHEALHNHYTQKSLSLSPGK
chain 2: DIVMTQTPLSLSVTPGQPASISCKSSQSLLHSDAKTYLNWLLQKPGQPPERLIYLVSELDSGVPDRFSGSGSGTDFTLKISRVEAEDVGVYYCWQGTHFPYTFGGGTKVEIKGGGSGGGGQVQLVQSGAEVKKPGASVKVSCKASGYSFTSYWMNWVRQAPGQGLEWIGVIHPSDSETWLDQKFKDRVTITVDKSTSTAYMELSSLRSEDTAVYYCAREHYGTSPFAYWGQGTLVTVSSGGCGGGKVAALKEKVAALKEKVAALKEKVAALKE
chain 3: not shown
- IC50 [1]: 3400 nM
- IC50 [2]: 6210 nM
- EC50 [3]: 4530 nM
- EC90 [3]: 22700 nM
- EC50 [4]: 2380 nM
- IC50 [5]: 2900 nM

B2: DART G (bispecific antibody, human IgG1, kappa, L234A L235A)
chain 1: QVQLVQSGAEVKKPGASVKVSCKASGYTFTNYGMNWVRQAPGQGLEWMGWINTYTGESTYADDFEGRFVFSMDTSASTAYLQISSLKAEDTAVYYCARESLYDYYSMDYWGQGTTVTVSSASTKGPSVFPLAPSSKSTSGGTAALGCLVKDYFPEPVTVSWNSGALTSGVHTFPAVLQSSGLYSLSSVVTVPSSSLGTQTYICNVNHKPSNTKVDKRVEPKSCDKTHTCPPCPAPEAAGGPSVFLFPPKPKDTLYITREPEVTCVVVDVSHEDPEVKFNWYVDGVEVHNAKTKPREEQYNSTYRVVSVLTVLHQDWLNGKEYKCKVSNKALPAPIEKTISKAKGQPREPQVYTLPPSREEMTKNQVSLSCAVKGFYPSDIAVEWESNGQPENNYKTTPPVLDSDGSFFLVSKLTVDKSRWQQGNVFSCSVMHEALHAKYTQKSLSLSPG
chain 2: DIVMTQTPLSLSVTPGQPASISCKSSQSLLHSDAKTYLNWLLQKPGQPPERLIYLVSELDSGVPDRFSGSGSGTDFTLKISRVEAEDVGVYYCWQGTHFPYTFGGGTKVEIKRTVAAPSVFIFPPSDEQLKSGTASVVCLLNNFYPREAKVQWKVDNALQSGNSQESVTEQDSKDSTYSLSSTLTLSKADYEKHKVYACEVTHQGLSSPVTKSFNRGEC
chain 3: QVQLVQSGAEVKKPGASVKVSCKASGYTFTNYGMNWVRQAPGQGLEWMGWINTYTGESTYADDFEGRFVFSMDTSASTAYLQISSLKAEDTAVYYCARESLYDYYSMDYWGQGTTVTVSSASTKGPSVFPLAPSSKSTSGGTAALGCLVKDYFPEPVTVSWNSGALTSGVHTFPAVLQSSGLYSLSSVVTVPSSSLGTQTYICNVNHKPSNTKVDKRVEPKSCDKTHTCPPCPAPEAAGGPSVFLFPPKPKDTLYITREPEVTCVVVDVSHEDPEVKFNWYVDGVEVHNAKTKPREEQYNSTYRVVSVLTVLHQDWLNGKEYKCKVSNKALPAPIEKTISKAKGQPREPQVYTLPPSREEMTKNQVSLWCLVKGFYPSDIAVEWESNGQPENNYKTTPPVLDSDGSFFLYSKLTVDKSRWQQGNVFSCSVMHEALHNHYTQKSLSLSPGGGGSGGGSGGGEIVLTQSPATLSLSPGERATLSCRASESVDNYGMSFMNWFQQKPGQPPKLLIHAASNQGSGVPSRFSGSGSGTDFTLTISSLEPEDFAVYFCQQSKEVPYTFGGGTKVEIKGGGSGGGGQVQLVQSGAEVKKPGASVKVSCKASGYSFTSYWMNWVRQAPGQGLEWIGVIHPSDSETWLDQKFKDRVTITVDKSTSTAYMELSSLRSEDTAVYYCAREHYGTSPFAYWGQGTLVTVSSGGCGGGEVAALEKEVAALEKEVAALEKEVAALEK
chain 4: EIVLTQSPATLSLSPGERATLSCRASESVDNYGMSFMNWFQQKPGQPPKLLIHAASNQGSGVPSRFSGSGSGTDFTLTISSLEPEDFAVYFCQQSKEVPYTFGGGTKVEIKGGGSGGGGQVQLVQSGAEVKKPGASVKVSCKASGYSFTSYWMNWVRQAPGQGLEWIGVIHPSDSETWLDQKFKDRVTITVDKSTSTAYMELSSLRSEDTAVYYCAREHYGTSPFAYWGQGTLVTVSSGGCGGGKVAALKEKVAALKEKVAALKEKVAALKE
- EC50 [6]: 1150 nM
- EC50 [7]: 940 nM
- IC50 [8]: 1600 nM
- IC50 [9]: 2550 nM
- IC50 [10]: 2060 nM

B3: DART I (bispecific antibody, human IgG4 S228P)
chain 1: DIQMTQSPSSLSASVGDRVTITCRASQDVSSVVAWYQQKPGKAPKLLIYSASYRYTGVPSRFSGSGSGTDFTLTISSLQPEDFATYYCQQHYSTPWTFGGGTKLEIKGGGSGGGGQVQLVQSGAEVKKPGASVKVSCKASGYSFTSYWMNWVRQAPGQGLEWIGVIHPSDSETWLDQKFKDRVTITVDKSTSTAYMELSSLRSEDTAVYYCAREHYGTSPFAYWGQGTLVTVSSGGCGGGEVAACEKEVAALEKEVAALEKEVAALEKESKYGPPCPPCPAPEFLGGPSVFLFPPKPKDTLYITREPEVTCVVVDVSQEDPEVQFNWYVDGVEVHNAKTKPREEQFNSTYRVVSVLTVLHQDWLNGKEYKCKVSNKGLPSSIEKTISKAKGQPREPQVYTLPPSQEEMTKNQVSLTCLVKGFYPSDIAVEWESNGQPENNYKTTPPVLDSDGSFFLYSRLTVDKSRWQEGNVFSCSVMHEALHNHYTQKSLSLSLG
chain 2: EIVLTQSPATLSLSPGERATLSCRASESVDNYGMSFMNWFQQKPGQPPKLLIHAASNQGSGVPSRFSGSGSGTDFTLTISSLEPEDFAVYFCQQSKEVPYTFGGGTKVEIKGGGSGGGGQVQLVQSGAEVKKPGASVKVSCKASGYTFTDYNMDWVRQAPGQGLEWMGDINPDNGVTIYNQKFEGRVTMTTDTSTSTAYMELRSLRSDDTAVYYCAREADYFYFDYWGQGTTLTVSSGGCGGGKVAACKEKVAALKEKVAALKEKVAALKE
- EC50 [11]: 1320 nM
- EC50 [12]: 532 nM
- IC50 [13]: 836 nM
- IC50 [14]: 1290 nM
- IC50 [15]: 486 nM
